Patent US20210284734A1 (SYMPHOGEN A S, published 2021)

T1: His-tagged cynomolgus PD-1 ECD (cynomolgus (Macaca fascicularis), UniProt Q15116 25-170 (human entry))
T1 construct: bought from Acro Biosystems; not shown: His tag
T1 chain: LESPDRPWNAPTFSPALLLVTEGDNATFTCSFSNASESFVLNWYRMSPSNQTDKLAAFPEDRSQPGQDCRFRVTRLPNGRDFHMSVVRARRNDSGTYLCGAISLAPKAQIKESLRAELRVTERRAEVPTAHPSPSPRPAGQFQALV

T2: cyno PD1 (limits assumed)
T2 construct: also called cynomolgus PD-1 expressed on CFSE-stained CHO-S cells
T2 receptor: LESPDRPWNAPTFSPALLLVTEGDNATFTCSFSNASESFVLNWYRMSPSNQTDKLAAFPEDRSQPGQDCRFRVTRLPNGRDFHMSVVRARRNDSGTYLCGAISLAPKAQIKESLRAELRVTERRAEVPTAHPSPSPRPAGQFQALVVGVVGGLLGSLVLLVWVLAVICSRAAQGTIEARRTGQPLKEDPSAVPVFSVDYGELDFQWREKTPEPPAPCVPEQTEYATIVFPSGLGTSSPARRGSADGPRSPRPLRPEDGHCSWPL

B1: 12892.13195 (antibody, human IgG1, lambda, L234A L235A)
heavy: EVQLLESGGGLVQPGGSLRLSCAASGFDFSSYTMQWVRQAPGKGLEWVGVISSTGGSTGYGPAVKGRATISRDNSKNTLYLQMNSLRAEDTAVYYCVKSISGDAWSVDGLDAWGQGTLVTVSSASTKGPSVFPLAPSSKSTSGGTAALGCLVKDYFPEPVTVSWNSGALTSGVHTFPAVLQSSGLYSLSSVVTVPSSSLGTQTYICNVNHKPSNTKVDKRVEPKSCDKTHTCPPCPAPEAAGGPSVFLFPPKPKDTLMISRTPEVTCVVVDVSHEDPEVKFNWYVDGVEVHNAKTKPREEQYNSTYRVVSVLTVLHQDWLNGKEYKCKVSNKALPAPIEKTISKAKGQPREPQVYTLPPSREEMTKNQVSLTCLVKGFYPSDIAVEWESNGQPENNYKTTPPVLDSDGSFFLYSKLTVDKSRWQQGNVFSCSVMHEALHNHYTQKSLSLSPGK
light: ELTQDPAVSVALGQTVRITCSGGGSAYGWYQQKPGQAPVTVIYYNNQRPSGIPDRFSGSSSGNTASLTITGAQAEDEADYYCGSYDSSAVGIFGSGTKVTVLGQPKANPTVTLFPPSSEELQANKATLVCLISDFYPGAVTVAWKADGSPVKAGVETTKPSKQSNNKYAASSYLSLTPEQWKSHRSYSCQVTHEGSTVEKTVAPTECS
notes: same as 12892.15378 but without the N-terminal SY of the light chain
B2: 13112.13208 (antibody, human IgG1, lambda, L234A L235A)
heavy: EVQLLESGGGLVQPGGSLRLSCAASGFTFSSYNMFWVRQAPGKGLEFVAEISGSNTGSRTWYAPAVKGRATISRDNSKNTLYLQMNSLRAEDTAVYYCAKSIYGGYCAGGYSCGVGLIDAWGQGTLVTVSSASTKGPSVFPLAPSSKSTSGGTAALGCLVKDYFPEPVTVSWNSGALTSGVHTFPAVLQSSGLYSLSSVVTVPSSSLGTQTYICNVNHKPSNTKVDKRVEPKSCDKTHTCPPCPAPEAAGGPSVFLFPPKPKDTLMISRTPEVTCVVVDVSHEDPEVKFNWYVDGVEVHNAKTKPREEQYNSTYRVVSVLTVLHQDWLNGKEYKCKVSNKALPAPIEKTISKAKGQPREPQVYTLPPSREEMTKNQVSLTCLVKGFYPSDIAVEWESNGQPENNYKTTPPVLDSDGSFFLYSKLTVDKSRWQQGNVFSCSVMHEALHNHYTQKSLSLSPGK
light: ELTQDPAVSVALGQTVRITCSGGSSDYYGWFQQKPGQAPVTVIYYNNKRPSDIPDRFSGSSSGNTASLTITGAQAEDEADYYCGNADSSVGVFGSGTKVTVLGQPKANPTVTLFPPSSEELQANKATLVCLISDFYPGAVTVAWKADGSPVKAGVETTKPSKQSNNKYAASSYLSLTPEQWKSHRSYSCQVTHEGSTVEKTVAPTECS
notes: same as 13112.15380 but without the N-terminal SY of the light chain
B3: 12819.13367 (antibody, human IgG1, lambda, L234A L235A)
heavy: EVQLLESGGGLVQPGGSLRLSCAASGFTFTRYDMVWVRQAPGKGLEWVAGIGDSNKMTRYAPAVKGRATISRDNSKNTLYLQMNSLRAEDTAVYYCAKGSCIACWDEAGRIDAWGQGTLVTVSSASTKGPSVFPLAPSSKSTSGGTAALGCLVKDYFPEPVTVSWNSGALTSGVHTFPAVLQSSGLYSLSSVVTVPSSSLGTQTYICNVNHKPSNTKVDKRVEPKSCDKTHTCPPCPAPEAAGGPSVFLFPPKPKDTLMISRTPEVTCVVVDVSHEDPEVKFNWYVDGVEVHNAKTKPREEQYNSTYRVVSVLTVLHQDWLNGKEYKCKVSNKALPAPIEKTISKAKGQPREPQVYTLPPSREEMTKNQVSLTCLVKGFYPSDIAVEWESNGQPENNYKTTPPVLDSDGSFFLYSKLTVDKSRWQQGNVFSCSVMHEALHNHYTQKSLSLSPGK
light: ELTQDPAVSVALGQTVRITCSGGGSYDGSSYYGWYQQKPGQAPVTVIYNNNNRPSDIPDRFSGSSSGNTASLTITGAQAEDEADYYCGSYDRPETNSDYVGMFGSGTKVTVLGQPKANPTVTLFPPSSEELQANKATLVCLISDFYPGAVTVAWKADGSPVKAGVETTKPSKQSNNKYAASSYLSLTPEQWKSHRSYSCQVTHEGSTVEKTVAPTECS
B4: 12777.13362 (antibody, human IgG1, lambda, L234A L235A)
heavy: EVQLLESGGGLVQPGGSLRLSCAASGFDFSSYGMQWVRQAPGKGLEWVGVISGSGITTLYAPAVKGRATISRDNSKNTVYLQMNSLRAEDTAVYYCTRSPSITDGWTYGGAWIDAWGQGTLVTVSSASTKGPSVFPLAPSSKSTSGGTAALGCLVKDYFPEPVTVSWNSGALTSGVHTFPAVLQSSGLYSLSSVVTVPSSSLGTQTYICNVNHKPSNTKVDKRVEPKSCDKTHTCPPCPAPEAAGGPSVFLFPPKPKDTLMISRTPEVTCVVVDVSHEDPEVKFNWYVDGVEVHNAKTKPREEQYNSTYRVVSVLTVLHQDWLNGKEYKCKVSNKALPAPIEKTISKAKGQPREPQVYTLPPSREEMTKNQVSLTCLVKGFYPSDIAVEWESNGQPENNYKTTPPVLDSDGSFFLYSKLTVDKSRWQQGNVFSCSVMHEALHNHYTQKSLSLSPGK
light: ELTQDPAVSVALGQTVRITCSGGDGSYGWFQQKPGQAPVTVIYDNDNRPSDIPDRFSGSSSGNTASLTITGAQAEDEADYYCGNADLSGGIFGSGTKVTVLGQPKANPTVTLFPPSSEELQANKATLVCLISDFYPGAVTVAWKADGSPVKAGVETTKPSKQSNNKYAASSYLSLTPEQWKSHRSYSCQVTHEGSTVEKTVAPTECS
notes: same as 12777.15382 but without the N-terminal SY of the light chain
B5: 12892.15378 (antibody, human IgG1, lambda, L234A L235A)
heavy: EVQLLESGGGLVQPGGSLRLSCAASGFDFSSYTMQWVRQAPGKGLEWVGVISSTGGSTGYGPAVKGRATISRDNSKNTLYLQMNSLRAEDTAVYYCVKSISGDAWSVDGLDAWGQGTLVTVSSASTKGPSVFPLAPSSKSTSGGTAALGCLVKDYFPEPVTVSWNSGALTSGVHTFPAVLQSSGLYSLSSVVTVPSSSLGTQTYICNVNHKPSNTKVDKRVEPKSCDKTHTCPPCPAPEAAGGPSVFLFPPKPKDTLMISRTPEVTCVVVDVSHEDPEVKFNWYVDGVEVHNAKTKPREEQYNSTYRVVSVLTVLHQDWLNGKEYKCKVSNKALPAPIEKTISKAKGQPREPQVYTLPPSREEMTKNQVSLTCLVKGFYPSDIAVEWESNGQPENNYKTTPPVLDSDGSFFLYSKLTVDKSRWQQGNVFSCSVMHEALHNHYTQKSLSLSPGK
light: SYELTQDPAVSVALGQTVRITCSGGGSAYGWYQQKPGQAPVTVIYYNNQRPSGIPDRFSGSSSGNTASLTITGAQAEDEADYYCGSYDSSAVGIFGSGTKVTVLGQPKANPTVTLFPPSSEELQANKATLVCLISDFYPGAVTVAWKADGSPVKAGVETTKPSKQSNNKYAASSYLSLTPEQWKSHRSYSCQVTHEGSTVEKTVAPTECS
notes: humanized, IgG1 LALA, lambda
B6: 12796.15376 (antibody, human IgG1, lambda, L234A L235A, V domains shown)
VH: EVQLLESGGGLVQPGGSLRLSCAASGFDFSSYTMQWVRQAPGKGLEWVGVISSTGGSTGYGPAVKGRATISRDNSKNTLYLQMNSLRAEDTAVYYCVKSVSGDAWSVDGLDAWGQGTLVTVSS
VL: SYELTQDPAVSVALGQTVRITCSGGGSAYGWYQQKPGQAPVTVIYYNNQRPSDIPDRFSGSSSGNTASLTITGAQAEDEADYYCGSYDSSAVGIFGSGTKVTVLG
notes: humanized, IgG1 LALA, lambda
B7: 12748.15381 (antibody, human IgG1, lambda, L234A L235A, V domains shown)
VH: EVQLLESGGGLVQPGGSLRLSCAASGFTFSDYAMNWVRQAPGKGLEWVAGIGNDGSYTNYGAAVKGRATISRDNSKNTLYLQMNSLRAEDTAVYYCASDIRSRNDCSYFLGGCSSGFIDVWGQGTLVTVSS
VL: SYELTQDPAVSVALGQTVRITCSGGSSYSYGWFQQKPGQAPVTVIYESNNRPSDIPDRFSGSSSGNTASLTITGAQAEDEADYYCGNADSSSGIFGSGTKVTVLG
notes: humanized, IgG1 LALA, lambda
B8: 12748.16124 (antibody, human IgG1, lambda, L234A L235A, V domains shown)
VH: B7 VH
VL: SYELTQPPSVSVSPGQTARITCSGGSSYSYGWFQQKPGQAPVTVIYESNNRPSDIPERFSGSSSGTTVTLTISGVQAEDEADYYCGNADSSSGIFGSGTKVTVLG
notes: alternative germline VL variant of 12748.15381; IgG1 LALA, lambda
B9: 12865.15377 (antibody, human IgG1, lambda, L234A L235A, V domains shown)
VH: EVQLLESGGGLVQPGGSLRLSCAASGFDFSDHGMQWVRQAPGKGLEYVGVIDTTGRYTYYAPAVKGRATISRDNSKNTLYLQMNSLRAEDTAVYYCAKTTCVGGYLCNTVGSIDAWGQGTLVTVSS
VL: SYELTQDPAVSVALGQTVRITCSGGGSSSYYGWYQQKPGQAPVTVIYDDTNRPSGIPDRFSGSSSGNTASLTITGAQAEDEADYYCGGYEGSSHAGIFGSGTKVTVLG
notes: humanized, IgG1 LALA, lambda
B10: 12777.15382 (antibody, human IgG1, lambda, L234A L235A)
heavy: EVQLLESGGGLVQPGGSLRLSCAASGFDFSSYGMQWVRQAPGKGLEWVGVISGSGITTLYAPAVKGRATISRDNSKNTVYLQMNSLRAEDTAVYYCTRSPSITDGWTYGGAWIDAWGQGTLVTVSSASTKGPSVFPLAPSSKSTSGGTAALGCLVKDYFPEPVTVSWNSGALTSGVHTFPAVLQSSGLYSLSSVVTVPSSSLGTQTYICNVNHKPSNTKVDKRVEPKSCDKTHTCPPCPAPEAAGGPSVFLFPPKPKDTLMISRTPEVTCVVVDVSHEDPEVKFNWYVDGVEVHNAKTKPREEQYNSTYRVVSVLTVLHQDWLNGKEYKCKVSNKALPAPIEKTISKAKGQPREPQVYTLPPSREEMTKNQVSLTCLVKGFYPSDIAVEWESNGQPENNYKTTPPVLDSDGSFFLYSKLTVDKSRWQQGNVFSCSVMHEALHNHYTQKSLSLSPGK
light: SYELTQDPAVSVALGQTVRITCSGGDGSYGWFQQKPGQAPVTVIYDNDNRPSDIPDRFSGSSSGNTASLTITGAQAEDEADYYCGNADLSGGIFGSGTKVTVLGQPKANPTVTLFPPSSEELQANKATLVCLISDFYPGAVTVAWKADGSPVKAGVETTKPSKQSNNKYAASSYLSLTPEQWKSHRSYSCQVTHEGSTVEKTVAPTECS
notes: humanized, IgG1 LALA, lambda
B11: 12760.15375 (antibody, human IgG1, lambda, L234A L235A, V domains shown)
VH: EVQLLESGGGLVQPGGSLRLSCAASGFTFSTFNMVWVRQAPGKGLEYVAEISSDGSFTWYATAVKGRATISRDNSKNTVYLQMNSLRAEDTAVYYCAKSDCSSSYYGYSCIGIIDAWGQGTLVTVSS
VL: SYELTQDPAVSVALGQTVRITCSGGISDDGSYYYGWFQQKPGQAPVTVIYINDRRPSNIPDRFSGSSSGNTASLTITGAQAEDEADYYCGSYDSSAGVGIFGSGTKVTVLG
notes: humanized, IgG1 LALA, lambda
B12: 13112.15380 (antibody, human IgG1, lambda, L234A L235A)
heavy: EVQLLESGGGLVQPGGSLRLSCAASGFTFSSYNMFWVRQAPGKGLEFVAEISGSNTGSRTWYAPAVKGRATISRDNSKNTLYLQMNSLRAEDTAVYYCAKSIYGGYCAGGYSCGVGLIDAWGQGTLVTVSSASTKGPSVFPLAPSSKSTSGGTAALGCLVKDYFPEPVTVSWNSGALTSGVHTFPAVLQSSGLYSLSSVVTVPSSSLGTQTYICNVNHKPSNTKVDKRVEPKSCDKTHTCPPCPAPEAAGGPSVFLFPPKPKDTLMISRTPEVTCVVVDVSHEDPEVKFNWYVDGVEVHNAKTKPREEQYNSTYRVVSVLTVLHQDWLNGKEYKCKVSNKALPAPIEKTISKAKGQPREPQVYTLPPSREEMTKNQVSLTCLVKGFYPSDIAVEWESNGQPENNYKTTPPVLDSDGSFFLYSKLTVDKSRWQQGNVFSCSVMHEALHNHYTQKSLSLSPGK
light: SYELTQDPAVSVALGQTVRITCSGGSSDYYGWFQQKPGQAPVTVIYYNNKRPSDIPDRFSGSSSGNTASLTITGAQAEDEADYYCGNADSSVGVFGSGTKVTVLGQPKANPTVTLFPPSSEELQANKATLVCLISDFYPGAVTVAWKADGSPVKAGVETTKPSKQSNNKYAASSYLSLTPEQWKSHRSYSCQVTHEGSTVEKTVAPTECS
notes: humanized, IgG1 LALA, lambda; whole antibody

Biological target: T3, human PD-1 Fc fusion protein (Sino Biological) (human, UniProt Q15116 25-167, limits assumed)
T3 construct: bought; not shown: Fc of the commercial fusion protein
T3 sequence (Q15116 25-167 limits assumed): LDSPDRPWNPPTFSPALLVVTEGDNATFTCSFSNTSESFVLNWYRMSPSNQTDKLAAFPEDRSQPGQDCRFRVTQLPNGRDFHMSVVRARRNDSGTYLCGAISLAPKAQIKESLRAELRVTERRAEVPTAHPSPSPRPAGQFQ
Experiment: BLI, PD-1-Fc saturated with 10 ug/ml antibody, then PD-L1-Fc
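Wherever % of all cells in Q3 of panel PD-L1 binding (PD-L1-, CFSE+ cyno PD1 cells) is given: human PD-1 CHO-S cells mixed with CFSE-labelled cyno PD-1 CHO-S cells, antibody binding read with APC anti-human IgG light chain detection.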
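Wherever % of cyno PD1-gated cells in Q1 (mAb+, PD-L1-) is given: human PD-1 CHO-S cells mixed with CFSE-labelled cyno PD-1 CHO-S cells, antibody binding read with APC anti-human IgG light chain detection.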
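Wherever % of cyno PD1-gated cells in Q2 (mAb+, PD-L1+) is given: human PD-1 CHO-S cells mixed with CFSE-labelled cyno PD-1 CHO-S cells, antibody binding read with APC anti-human IgG light chain detection.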
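Wherever % of cyno PD1-gated cells in Q3 (mAb-, PD-L1+) is given: human PD-1 CHO-S cells mixed with CFSE-labelled cyno PD-1 CHO-S cells, antibody binding read with APC anti-human IgG light chain detection.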

% Blocking	Binder
88%	B1
53%	B2
94%	B3
93%	B4

Biological target: T1, His-tagged cynomolgus PD-1 ECD
Experiment: SPR, IgG captured, monovalent PD-1 ECD analyte

Kd	koff	kon	Binder
2.34 nM	0.00069 s⁻¹	290000 M⁻¹ s⁻¹	B5
2.22 nM	0.0007 s⁻¹	320000 M⁻¹ s⁻¹	B6
0.101 nM	0.00047 s⁻¹	4.6e+06 M⁻¹ s⁻¹	B7
0.081 nM	0.00039 s⁻¹	4.8e+06 M⁻¹ s⁻¹	B8
0.738 nM	0.00038 s⁻¹	510000 M⁻¹ s⁻¹	B9
0.681 nM	0.00017 s⁻¹	250000 M⁻¹ s⁻¹	B10
6.94 nM	0.0072 s⁻¹	1e+06 M⁻¹ s⁻¹	B11
0.452 nM	0.0011 s⁻¹	2.5e+06 M⁻¹ s⁻¹	B12

Biological target: T4, His-tagged human PD-1 ECD (human, UniProt Q15116 25-170)
T4 construct: bought from Acro Biosystems; not shown: His tag
T4 sequence (Q15116 25-170): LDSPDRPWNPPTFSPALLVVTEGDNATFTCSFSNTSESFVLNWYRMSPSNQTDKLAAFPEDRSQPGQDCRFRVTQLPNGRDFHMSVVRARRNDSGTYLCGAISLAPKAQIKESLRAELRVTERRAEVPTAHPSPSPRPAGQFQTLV
Experiment: SPR, IgG captured, monovalent PD-1 ECD analyte

Kd	koff	kon	Binder
0.737 nM	0.00034 s⁻¹	460000 M⁻¹ s⁻¹	B5
0.542 nM	0.00038 s⁻¹	710000 M⁻¹ s⁻¹	B6
0.054 nM	0.00017 s⁻¹	3.2e+06 M⁻¹ s⁻¹	B7
0.047 nM	0.00016 s⁻¹	3.4e+06 M⁻¹ s⁻¹	B8
0.558 nM	0.00023 s⁻¹	420000 M⁻¹ s⁻¹	B9
0.337 nM	8e-05 s⁻¹	240000 M⁻¹ s⁻¹	B10
0.112 nM	0.00014 s⁻¹	1.2e+06 M⁻¹ s⁻¹	B11
0.06 nM	6.9e-05 s⁻¹	1.2e+06 M⁻¹ s⁻¹	B12

Biological target: T2, cyno PD1
Experiment: flow cytometry, PD-1-transfected CHO-S cells; mAb 10 ug/ml, then R-PE PD-L1-Fc as blocked ligand

% of all cells in Q3 of panel PD-L1 binding (PD-L1-, CFSE+ cyno PD1 cells)	% of cyno PD1-gated cells in Q1 (mAb+, PD-L1-)	% of cyno PD1-gated cells in Q2 (mAb+, PD-L1+)	% of cyno PD1-gated cells in Q3 (mAb-, PD-L1+)	% of cyno PD1-gated cells in Q4 (mAb-, PD-L1-)	Binder
55.2%	42.9%	3.36%	1.28%	52.5%	B1
51.1%	47.8%	3.87%	0.99%	47.3%	B3
50%	51.8%	11.4%	0.74%	36.1%	B4

Biological target: T5, human PD-1 expressed on CHO-S cells (human, UniProt Q15116 25-288)
T5 construct: also called PD-1-expressing cells
T5 sequence (Q15116 25-288 limits assumed): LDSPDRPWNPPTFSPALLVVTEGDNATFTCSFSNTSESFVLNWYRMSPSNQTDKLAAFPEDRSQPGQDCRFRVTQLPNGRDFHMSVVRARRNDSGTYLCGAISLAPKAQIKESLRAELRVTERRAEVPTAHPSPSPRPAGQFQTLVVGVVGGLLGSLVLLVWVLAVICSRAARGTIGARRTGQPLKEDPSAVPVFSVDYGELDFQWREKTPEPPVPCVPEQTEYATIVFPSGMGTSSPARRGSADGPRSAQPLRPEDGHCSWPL
Experiment: as above

% of all cells in Q1 of panel PD-L1 binding (PD-L1+, CFSE- human PD1 cells)	% of all cells in Q4 of panel PD-L1 binding (PD-L1-, CFSE- human PD1 cells)	% of human PD1-gated cells in Q1 (mAb+, PD-L1-)	% of human PD1-gated cells in Q2 (mAb+, PD-L1+)	% of human PD1-gated cells in Q3 (mAb-, PD-L1+)	% of human PD1-gated cells in Q4 (mAb-, PD-L1-)	Binder
0.59%	43.8%	56.1%	5.3%	0.45%	38.2%	B1
0.73%	47.6%	58.8%	5.85%	0.37%	35%	B3
2.56%	45.3%	59.6%	14.3%	0.28%	25.9%	B4

Biological target: T3, human PD-1 Fc fusion protein (Sino …)
Experiment: BLI, PD-1-Fc saturated with 10 ug/ml antibody, then PD-L2-Fc

% Blocking	Binder
77%	B1
27%	B2
94%	B3
90%	B4

Biological target: T5, human PD-1 expressed on CHO-S cells
Experiment: flow cytometry competition, 10 ug/ml antibody vs R-PE PD-L1-Fc on PD-1 CHO-S cells

% PD-L1 binding inhibition	Binder
88%	B1
5%	B2
87%	B3
69%	B4
